The supplement of paper PMC9112550, “Optimization of the antimicrobial peptide Bac7 by deep mutational scanning” (BMC Biology, 2022)

The sequences below were run on Escherichia coli TOP10 (assay: shrunken log2 fold change of peptide-encoding DNA abundance (4.5 h post-induction vs induction); higher = less antimicrobial activity (less host growth inhibition)). Settings: time post-induction: 4.5 h; library: site-saturation at positions 5, 18, 19, 20.
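Further: peptides expressed intracellularly from a pBAD plasmid library in pooled LB shake-flask culture, induced with 0.3% L-arabinose, DNA abundance read by NGS, three biological replicates, DESeq2 with apeglm shrinkage.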

Row | Sequence | shrunken log2 fold change
1 | RRIRWRPPRLPRPRPRPMMLPRP | 0.309
2 | RRIRARPPRLPRPRPRPMDIPRP | 0.142
3 | RRIRIRPPRLPRPRPRPTFDPRP | -0.188
4 | RRIRGRPPRLPRPRPRPHNRPRP | 0.0391
5 | RRIRERPPRLPRPRPRPSDLPRP | -0.151
6 | RRIRNRPPRLPRPRPRPGGVPRP | 0.239
7 | RRIRERPPRLPRPRPRPTACPRP | -0.134
8 | RRIRTRPPRLPRPRPRPPCDPRP | 0.0499
9 | RRIRSRPPRLPRPRPRPWSCPRP | 0.194
10 | RRIRPRPPRLPRPRPRPRDLPRP | 0.172
11 | RRIRHRPPRLPRPRPRPGWMPRP | 0.0172
12 | RRIRKRPPRLPRPRPRPTCTPRP | 0.314
13 | RRIRSRPPRLPRPRPRPWSEPRP | -0.196
14 | RRIRCRPPRLPRPRPRPWHFPRP | -0.422
15 | RRIRWRPPRLPRPRPRPRSCPRP | 0.083
16 | RRIRQRPPRLPRPRPRPSPPPRP | 0.169
17 | RRIRKRPPRLPRPRPRPKPIPRP | 0.742
18 | RRIRMRPPRLPRPRPRPHPDPRP | -0.0902
19 | RRIRGRPPRLPRPRPRPEQHPRP | 0.66
20 | RRIRCRPPRLPRPRPRPANWPRP | 0.938
21 | RRIRQRPPRLPRPRPRPIIEPRP | -0.504
22 | RRIRYRPPRLPRPRPRPRVHPRP | -0.0416
23 | RRIRYRPPRLPRPRPRPGPGPRP | 0.304
24 | RRIRIRPPRLPRPRPRPIGPPRP | 0.0815
25 | RRIRVRPPRLPRPRPRPRSVPRP | 0.0756

Row | Sequence | shrunken log2 fold change
26 | RRIRSRPPRLPRPRPRPMIDPRP | -0.249
27 | RRIRIRPPRLPRPRPRPCIAPRP | -0.0579
28 | RRIRCRPPRLPRPRPRPGVQPRP | -0.419
29 | RRIRWRPPRLPRPRPRPMIVPRP | 2.28
30 | RRIRCRPPRLPRPRPRPNPQPRP | -0.359
31 | RRIRDRPPRLPRPRPRPLAVPRP | 0.887
32 | RRIRQRPPRLPRPRPRPTWPPRP | 0.268
33 | RRIRCRPPRLPRPRPRPPQRPRP | 0.94
34 | RRIRCRPPRLPRPRPRPMDNPRP | -0.411
35 | RRIRVRPPRLPRPRPRPYNLPRP | -0.414
36 | RRIRRRPPRLPRPRPRPCAPPRP | 0.275
37 | RRIRNRPPRLPRPRPRPVGNPRP | -0.00879
38 | RRIRPRPPRLPRPRPRPRELPRP | 0.39
39 | RRIRHRPPRLPRPRPRPCNIPRP | -0.236
40 | RRIRHRPPRLPRPRPRPRVKPRP | -0.00109
41 | RRIRFRPPRLPRPRPRPAHMPRP | 0.129
42 | RRIRNRPPRLPRPRPRPRIFPRP | -0.442
43 | RRIRQRPPRLPRPRPRPKSLPRP | -0.0933
44 | RRIRFRPPRLPRPRPRPPKMPRP | 0.436
45 | RRIRWRPPRLPRPRPRPRGQPRP | 0.302
46 | RRIRQRPPRLPRPRPRPRLHPRP | 0.0368
47 | RRIRVRPPRLPRPRPRPCDNPRP | -0.418
48 | RRIRERPPRLPRPRPRPTYYPRP | -0.614
49 | RRIRKRPPRLPRPRPRPYRFPRP | -0.244
50 | RRIRMRPPRLPRPRPRPVGRPRP | 0.724

Row | Sequence | shrunken log2 fold change
51 | RRIRRRPPRLPRPRPRPHHRPRP | 0.0911
52 | RRIRWRPPRLPRPRPRPLFGPRP | 0.352
53 | RRIRDRPPRLPRPRPRPGDAPRP | 0.207
54 | RRIRFRPPRLPRPRPRPEILPRP | -0.0488
55 | RRIRWRPPRLPRPRPRPKISPRP | 0.177
56 | RRIRIRPPRLPRPRPRPWWSPRP | -0.0718
57 | RRIRPRPPRLPRPRPRPCIDPRP | -0.742
58 | RRIRRRPPRLPRPRPRPTEPPRP | 0.4
59 | RRIRCRPPRLPRPRPRPHIDPRP | -0.42
60 | RRIRHRPPRLPRPRPRPDWTPRP | -0.0689
61 | RRIRYRPPRLPRPRPRPWAPPRP | -0.289
62 | RRIRTRPPRLPRPRPRPVHLPRP | -0.123
63 | RRIRGRPPRLPRPRPRPWPHPRP | 0.074
64 | RRIRIRPPRLPRPRPRPLYCPRP | -0.744
65 | RRIRARPPRLPRPRPRPVIHPRP | -0.307
66 | RRIRPRPPRLPRPRPRPDFNPRP | 1.09
67 | RRIRNRPPRLPRPRPRPASDPRP | 0.278
68 | RRIRRRPPRLPRPRPRPWFAPRP | 0.204
69 | RRIRARPPRLPRPRPRPSTVPRP | 0.123
70 | RRIRRRPPRLPRPRPRPGHYPRP | -0.0611
71 | RRIRVRPPRLPRPRPRPREKPRP | 0.179
72 | RRIRFRPPRLPRPRPRPAAVPRP | 0.169
73 | RRIRQRPPRLPRPRPRPRYQPRP | -0.0107
74 | RRIRWRPPRLPRPRPRPTRYPRP | -0.104
75 | RRIRDRPPRLPRPRPRPDEKPRP | 0.0291

Row | Sequence | shrunken log2 fold change
76 | RRIRNRPPRLPRPRPRPGWHPRP | -0.154
77 | RRIRHRPPRLPRPRPRPDTTPRP | -0.226
78 | RRIRWRPPRLPRPRPRPPNSPRP | 0.39
79 | RRIRDRPPRLPRPRPRPNWRPRP | 0.46
80 | RRIRARPPRLPRPRPRPVCFPRP | 0.489
81 | RRIRTRPPRLPRPRPRPFDVPRP | -0.243
82 | RRIRGRPPRLPRPRPRPLPSPRP | 0.83
83 | RRIRTRPPRLPRPRPRPACIPRP | 0.599
84 | RRIRGRPPRLPRPRPRPMSPPRP | 0.00263
85 | RRIRGRPPRLPRPRPRPALFPRP | 1.23
86 | RRIRYRPPRLPRPRPRPRMNPRP | 0.0193
87 | RRIRDRPPRLPRPRPRPRKAPRP | -0.0143
88 | RRIRIRPPRLPRPRPRPFQQPRP | -0.0967
89 | RRIRWRPPRLPRPRPRPPYTPRP | -0.137
90 | RRIRYRPPRLPRPRPRPAVEPRP | 0.161
91 | RRIRNRPPRLPRPRPRPTIDPRP | -0.492
92 | RRIRIRPPRLPRPRPRPMGYPRP | -0.148
93 | RRIRNRPPRLPRPRPRPNKTPRP | -0.0415
94 | RRIRDRPPRLPRPRPRPMPTPRP | -0.0113
95 | RRIRMRPPRLPRPRPRPYKQPRP | -0.000436
96 | RRIRQRPPRLPRPRPRPFPQPRP | -0.0621
97 | RRIRYRPPRLPRPRPRPDAIPRP | -0.224
98 | RRIRFRPPRLPRPRPRPQVDPRP | -0.412
99 | RRIRKRPPRLPRPRPRPVIVPRP | -0.0233
100 | RRIRTRPPRLPRPRPRPEVAPRP | 0.0197

Row | Sequence | shrunken log2 fold change
101 | RRIRVRPPRLPRPRPRPCPCPRP | -0.151
102 | RRIRPRPPRLPRPRPRPPAGPRP | 0.506
103 | RRIRCRPPRLPRPRPRPYRPPRP | -0.352
104 | RRIRIRPPRLPRPRPRPYHKPRP | -0.165
105 | RRIRTRPPRLPRPRPRPELEPRP | 0.0188
106 | RRIRTRPPRLPRPRPRPPLYPRP | -0.12
107 | RRIRPRPPRLPRPRPRPNWWPRP | 0.717
108 | RRIRDRPPRLPRPRPRPTCGPRP | 1.11
109 | RRIRPRPPRLPRPRPRPLFPPRP | -0.0198
110 | RRIRSRPPRLPRPRPRPMTFPRP | -0.202
111 | RRIRYRPPRLPRPRPRPSMSPRP | -1.19
112 | RRIRFRPPRLPRPRPRPVCGPRP | 0.277
113 | RRIRTRPPRLPRPRPRPNQDPRP | -0.308
114 | RRIRRRPPRLPRPRPRPRFEPRP | 0.582
115 | RRIRNRPPRLPRPRPRPYHKPRP | -2.76
116 | RRIRRRPPRLPRPRPRPCFMPRP | -0.207
117 | RRIRMRPPRLPRPRPRPQQKPRP | 0.0182
118 | RRIRYRPPRLPRPRPRPQTKPRP | -0.168
119 | RRIRDRPPRLPRPRPRPRCPPRP | 0.131
120 | RRIRARPPRLPRPRPRPPMKPRP | 0.303
121 | RRIRVRPPRLPRPRPRPTMNPRP | -0.353
122 | RRIRQRPPRLPRPRPRPDYIPRP | -0.0798
123 | RRIRPRPPRLPRPRPRPPWKPRP | 0.416
124 | RRIRMRPPRLPRPRPRPEWVPRP | 0.32
125 | RRIRERPPRLPRPRPRPIVEPRP | 0.0517

Row | Sequence | shrunken log2 fold change
126 | RRIRARPPRLPRPRPRPVCIPRP | 0.11
127 | RRIRPRPPRLPRPRPRPHSVPRP | -0.213
128 | RRIRMRPPRLPRPRPRPRVQPRP | 0.64
129 | RRIRIRPPRLPRPRPRPSYKPRP | -1.42
130 | RRIRHRPPRLPRPRPRPLHGPRP | 0.00793
131 | RRIRHRPPRLPRPRPRPWAIPRP | 0.112
132 | RRIRGRPPRLPRPRPRPDNQPRP | 0.168
133 | RRIRRRPPRLPRPRPRPTWEPRP | 0.0289
134 | RRIRPRPPRLPRPRPRPMCWPRP | 0.156
135 | RRIRKRPPRLPRPRPRPSQGPRP | 0.0922
136 | RRIRDRPPRLPRPRPRPLNPPRP | -0.478
137 | RRIRFRPPRLPRPRPRPQYYPRP | -0.846
138 | RRIRSRPPRLPRPRPRPRNIPRP | -0.28
139 | RRIRKRPPRLPRPRPRPAFYPRP | 0.114
140 | RRIRQRPPRLPRPRPRPYFFPRP | -0.706
141 | RRIRTRPPRLPRPRPRPCYLPRP | -0.468
142 | RRIRLRPPRLPRPRPRPLNWPRP | -0.0552
143 | RRIRNRPPRLPRPRPRPTGCPRP | -0.0633
144 | RRIRQRPPRLPRPRPRPKGMPRP | 0.0157
145 | RRIRCRPPRLPRPRPRPRPRPRP | 0.83
146 | RRIRIRPPRLPRPRPRPTPWPRP | 0.154
147 | RRIRIRPPRLPRPRPRPLMFPRP | -0.617
148 | RRIRLRPPRLPRPRPRPTQQPRP | 0.0862
149 | RRIRNRPPRLPRPRPRPINTPRP | -0.574
150 | RRIRNRPPRLPRPRPRPTIPPRP | -0.605
